# Measured values: doi:10.1101/2020.01.08.898304 (bioRxiv, 2020)
# Positions count from the first letter of the chain named.
# B1: GST-LMO4 (natural protein, UniProt P61968 1-165, looked up)
# chain: MVNPGSSSQPPPVTAGSLSWKRCAGCGGKIADRFLLYAMDSYWHSRCLKCSCCQAQLGDIGTSCYTKSGMILCRNDYIRLFGNSGACSACGQSIPASELVMRAQGNVYHLKCFTCSTCRNRLVPGDRFHYINGSLFCEHDRPTALINGHLNSLQSNPLLPDQKVC
# Legend:
# [1] = target: T1, Jacob (recombinant protein used for ITC) (UniProt Q9EPI6 1-532); experiment: ITC
# T1 sequence (looked up): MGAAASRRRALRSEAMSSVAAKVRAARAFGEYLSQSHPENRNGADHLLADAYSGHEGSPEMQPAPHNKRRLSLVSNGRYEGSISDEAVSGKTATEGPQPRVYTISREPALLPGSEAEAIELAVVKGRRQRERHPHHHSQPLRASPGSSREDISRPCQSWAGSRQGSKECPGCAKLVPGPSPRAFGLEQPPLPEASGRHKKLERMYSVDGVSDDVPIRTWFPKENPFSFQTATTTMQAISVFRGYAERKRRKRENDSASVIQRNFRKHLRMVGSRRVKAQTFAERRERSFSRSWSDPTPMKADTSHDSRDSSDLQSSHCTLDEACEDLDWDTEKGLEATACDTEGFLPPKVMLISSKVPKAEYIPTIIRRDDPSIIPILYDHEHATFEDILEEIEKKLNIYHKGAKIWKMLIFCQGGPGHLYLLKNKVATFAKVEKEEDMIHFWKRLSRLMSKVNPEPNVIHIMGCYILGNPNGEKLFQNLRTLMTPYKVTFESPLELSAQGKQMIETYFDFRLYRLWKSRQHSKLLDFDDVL
# MBP-Jacob-45-228-180A = target: T2, MBP-Jacob-45-228-180A (UniProt Q9EPI6 45-228, S180A); experiment: pull-down
# T2 sequence (looked up): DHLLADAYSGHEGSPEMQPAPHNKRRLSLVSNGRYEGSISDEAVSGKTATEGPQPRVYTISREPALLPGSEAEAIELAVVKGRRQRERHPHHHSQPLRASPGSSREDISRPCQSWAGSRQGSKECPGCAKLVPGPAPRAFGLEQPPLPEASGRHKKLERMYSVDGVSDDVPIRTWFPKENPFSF
# MBP-Jacob-45-228 = target: T3, MBP-Jacob-45-228 (UniProt Q9EPI6 45-228); experiment: pull-down
# T3 sequence (looked up): T2 sequence (looked up) with A136S
binder,measurement,setting,value
B1,Kd,[1],370 nM
same,binding result,MBP-Jacob-45-228-180A,binds
same,binding result,MBP-Jacob-45-228,binds
